The values that follow come from publication PMC11461620 (Nature Communications, 2024).

This series deals with the molecule itself. Nature of the series: crystal structure.

B1: β-barrel domain of E. coli BamA (residues 426–810) (domain or fragment)
chain: not shown
modifications: biotin (EZ-Link NHS-PEG4-Biotin, chemical) in the SPR experiment only
With B1, the binding result is listed as “binds”.
